Assay results: patent US9260754B2, “Connexin mutation detection for lymphatic variation and disease” (University of Pittsburgh—Of the Commonwealth System of …, priority 2010, dated 2016)

System: HeLa cell pairs
Assay: Dual whole cell patch clamp recording of coupling current in transfected HeLa cell pairs
Assay type: cell-based, human
Conditions: for elect coupling: Table 3 (Example 2); for elect coupling / electrical coupling: HeLa cell pairs, 100 mV step, mean ± SEM; for electrical coupling: Table 6 (Example 4); for electrical coupling / functional channels in HeLa cell pairs (in words): transfected HeLa cell pairs, voltage step protocol −100 to +100 mV
Description: Coupling currents were recorded using simultaneous double whole-cell patch clamp recordings from isolated pairs of cells that were in contact with one another (determined visually) as previously described. Briefly, the pipette solution consisted of (mM): 130 CsCl, 10 EGTA, 10 HEPES, 3 Mg-ATP, 2 Na-ATP, 0.5 CaCl2, pH 7.3. The culture was bathed in a solution consisting of (mM): 140 NaCl, 5 HEPES, 5 glucose, 4 KCl, 2 CsCl, 2 CaCl2, 2 pyruvate, 1 BaCl2, pH 7.3. Transfected HeLas undergo electrophysiologic analysis in a blinded manner. Pairs of cells were chosen for study only if both expressed the GFP marker indicative of successful transfections; both stable and transient transfectants were analyzed. Patch pipettes were fabricated from borosilicate glass, and coupling currents were amplified by Axopatch 200A amplifiers, filtered at 1 KHz, and digitized at 5 KHz for subsequent analysis using pClamp software (Axon Instruments/Molecular Devices; Sunnyvale, Calif.). All experiments were carried out at room temperature (22° C.). Coupling current was quantified by measuring the peak current recorded in the pair when the neighboring cell received a 100 mV step membrane potential change (in both positive and negative directions). Step changes in membrane potential were delivered to each cell in the pair in sequence and the average current recorded in the neighboring cell was determined and divided by 100 to generate coupling current expressed in pA/mV. Means±SEM were calculated and statistical significance using a one-way analysis of variance and Tukey's post-hoc test, p<0.05.
Coupling current is quantified by measuring the peak current recorded in the pair when the neighboring cell receives a 100 mV step membrane potential change (in both positive and negative directions). Step changes in membrane potential are delivered to each cell in the pair in sequence and the average current recorded in the neighboring cell determined and divided by 100 to generate coupling current expressed in pA/mV (FIG. 6C). Replicate measurements (n=3-6) are made on at least two different days. […] The untransfected HeLa cell pairs also show minimal channel function, as predicted.
Electrophysiologic characteristics of GJIC were measured between HeLa cell pairs transfected with the mutant constructs (as indicated by EGFP expression) by dual whole cell patch clamp recording. All experiments were carried out in a blinded manner. Coupling current is quantified by measuring the peak current recorded in the pair when the neighboring cell receives a 100 mV step membrane potential change (in both positive and negative directions). Step changes in membrane potential are delivered to each cell in the pair in sequence and the average current recorded in the neighboring cell determined and divided by 100 to generate coupling current expressed in pA/mV. Untransfected HeLa cells and cells transfected with empty vector (i.e., no hCx47) were used as additional controls.

B1: WT-hCx47: human wild type Cx47 construct in bicistronic pIRES2-EGFP vector, expressed in HeLa cells or LECs (protein, UniProt Q5T442 1-439, looked up)
Gap junction gamma-2 protein: MTNMSWSFLTRLLEEIHNHSTFVGKVWLTVLVVFRIVLTAVGGEAIYSDEQAKFTCNTRQPGCDNVCYDAFAPLSHVRFWVFQIVVISTPSVMYLGYAVHRLARASEQERRRALRRRPGPRRAPRAHLPPPHAGWPEPADLGEEEPMLGLGEEEEEEETGAAEGAGEEAEEAGAEEACTKAVGADGKAAGTPGPTGQHDGRRRIQREGLMRVYVAQLVARAAFEVAFLVGQYLLYGFEVRPFFPCSRQPCPHVVDCFVSRPTEKTVFLLVMYVVSCLCLLLNLCEMAHLGLGSAQDAVRGRRGPPASAPAPAPRPPPCAFPAAAAGLACPPDYSLVVRAAERARAHDQNLANLALQALRDGAAAGDRDRDSSPCVGLPAASRGPPRAGAPASRTGSATSAGTVGEQGRPGTHERPGAKPRAGSEKGSASSRDGKTTVWI
  elect coupling: 31.6 pA/mV
  electrical coupling: 35.9 pA/mV
  electrical coupling / functional channels in HeLa cell pairs (in words): show evidence of voltage-dependent gating
Listed as WT hCx47
  electrical coupling / functional channels in HeLa cell pairs (in words): well coupled
Listed as WT-hCX47-EGFP
  electrical coupling / functional channels in HeLa cell pairs (in words): well coupled

B2: G146S: Cx47 missense mutant G146S (436G>A), intracellular loop, construct expressed in HeLa cells or LECs (protein, listed as Homo sapiens)
chain: MSWSFLTRLLEEIHNHSTFVGKVWLTVLVVFRIVLTAVGGEAIYSDEQAKFTCNTRQPGCDNVCYDAFAPLSHVRFWVFQIVVISTPSVMYLGYAVHRLARASEQERRRALRRRPGPRRAPRAHLPPPHAGWPEPADLGEEEPMLSLGEEEEEEETGAAEGAGEEAEEAGAEEACTKAVGADGKAAGTPGPTGQHDGRRRIQREGLMRVYVAQLVARAAFEVAFLVGQYLLYGFEVRPFFPCSRQPCPHVVDCFVSRPTEKTVFLLVMYVVSCLCLLLNLCEMAHLGLGSAQDAVRGRRGPPASAPAPAPRPPPCAFPAAAAGLACPPDYSLVVRAAERARAHDQNLANLALQALRDGAAAGDRDRDSSPCVGLPAASRGPPRAGAPASRTGSATSAGTVGEQGRPGTHERPGAKPRAGSEKGSASSRDGKTTVWI
  elect coupling: 16.2 pA/mV
  electrical coupling: 32.4 pA/mV
  electrical coupling / functional channels in HeLa cell pairs (in words): well coupled
